Data as given in US20260049105A1 (ARIZONA BOARD OF REGENTS ON BEHALF OF THE UNIVERSITY OF …, published 2026).

Assays:
[1] = target: T1, human melanocortin 1 receptor (human, UniProt Q01726 1-317); experiment: cell-based or functional assay
[2] = target: human melanocortin 5 receptor (human, UniProt P33032 1-325); experiment: cell-based or functional assay
[3] = target: T2, human melanocortin 3 receptor (human, UniProt P41968 1-323); experiment: cell-based or functional assay
[4] = target: human melanocortin 4 receptor (human, UniProt P32245 1-332); experiment: cell-based or functional assay
[5] = target: T1, human melanocortin 1 receptor; experiment: competition with 125I-NDP-α-MSH, cells expressing hMC1R
[6] = target: T2, human melanocortin 3 receptor; experiment: competition with 125I-NDP-α-MSH, cells expressing hMC3R

T2 sequence (P41968 whole entry): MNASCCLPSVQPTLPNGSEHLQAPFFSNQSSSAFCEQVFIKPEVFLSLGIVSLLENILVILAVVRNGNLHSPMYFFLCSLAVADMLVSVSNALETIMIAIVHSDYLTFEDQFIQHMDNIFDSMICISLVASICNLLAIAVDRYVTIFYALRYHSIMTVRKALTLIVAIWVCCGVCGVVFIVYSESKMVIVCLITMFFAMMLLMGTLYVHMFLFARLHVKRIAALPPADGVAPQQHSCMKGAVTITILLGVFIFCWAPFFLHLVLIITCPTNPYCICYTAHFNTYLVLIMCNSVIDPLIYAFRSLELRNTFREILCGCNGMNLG
T1 sequence (Q01726 whole entry): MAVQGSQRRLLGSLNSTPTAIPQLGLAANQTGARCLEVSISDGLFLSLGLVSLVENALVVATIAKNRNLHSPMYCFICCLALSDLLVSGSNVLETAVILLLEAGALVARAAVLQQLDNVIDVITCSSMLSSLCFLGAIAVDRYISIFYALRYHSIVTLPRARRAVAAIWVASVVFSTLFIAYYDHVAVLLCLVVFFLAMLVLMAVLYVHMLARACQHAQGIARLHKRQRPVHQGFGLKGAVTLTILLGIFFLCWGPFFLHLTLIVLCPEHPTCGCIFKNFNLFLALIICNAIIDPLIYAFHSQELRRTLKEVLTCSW
human melanocortin 5 receptor, sequence (P33032 whole entry): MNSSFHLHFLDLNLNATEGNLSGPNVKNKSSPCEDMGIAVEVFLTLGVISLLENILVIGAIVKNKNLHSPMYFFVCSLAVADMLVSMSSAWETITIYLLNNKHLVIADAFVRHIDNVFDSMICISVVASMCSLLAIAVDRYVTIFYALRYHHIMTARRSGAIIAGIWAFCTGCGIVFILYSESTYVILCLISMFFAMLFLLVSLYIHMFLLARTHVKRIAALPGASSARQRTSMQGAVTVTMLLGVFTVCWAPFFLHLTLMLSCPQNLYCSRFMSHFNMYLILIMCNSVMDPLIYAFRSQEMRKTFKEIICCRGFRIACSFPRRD
human melanocortin 4 receptor, sequence (P32245 whole entry): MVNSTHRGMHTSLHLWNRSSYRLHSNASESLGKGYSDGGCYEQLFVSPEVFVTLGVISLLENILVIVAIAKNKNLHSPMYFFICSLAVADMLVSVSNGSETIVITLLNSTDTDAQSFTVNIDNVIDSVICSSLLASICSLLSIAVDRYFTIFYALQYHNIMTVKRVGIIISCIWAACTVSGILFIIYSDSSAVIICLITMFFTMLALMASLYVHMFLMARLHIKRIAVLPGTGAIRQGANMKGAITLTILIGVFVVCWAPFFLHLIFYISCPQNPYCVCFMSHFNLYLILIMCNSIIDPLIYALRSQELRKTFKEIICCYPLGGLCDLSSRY

B1: Ac-Arg-cyclo[Asp-Pip-D-Phe(4-F)-βArg-Trp-Lys]-NH2 (peptide)
peptide: RDXFRWK
modifications: not fully specified; N-terminal acetyl (Ac); C-terminal amide (NH2); cyclized through the side chains of Asp2 and Lys7; Pip at 3; D-Phe(4-F) at 4; βArg at 5
notes: Synthetic cyclic peptide; also called compound 5; analogue 5
- Act % [1]: 100%
- EC50 (nM), cAMP accumulation [1]: 340 nM
- Act % [2]: 62%
- EC50 (nM), cAMP accumulation [2]: > 1000 nM
- Act % [3]: 59%
- EC50 (nM), cAMP accumulation [3]: > 1000 nM
- EC50 (nM), cAMP accumulation [4]: > 1000 nM
- IC50 [5]: 14 nM
- IC50 [6]: 59 nM
